The target in one series is T1, BcUGlcAE (Bacillus cytotoxicus, UniProt A7GQD3).
T1 sequence (A7GQD3 1-314): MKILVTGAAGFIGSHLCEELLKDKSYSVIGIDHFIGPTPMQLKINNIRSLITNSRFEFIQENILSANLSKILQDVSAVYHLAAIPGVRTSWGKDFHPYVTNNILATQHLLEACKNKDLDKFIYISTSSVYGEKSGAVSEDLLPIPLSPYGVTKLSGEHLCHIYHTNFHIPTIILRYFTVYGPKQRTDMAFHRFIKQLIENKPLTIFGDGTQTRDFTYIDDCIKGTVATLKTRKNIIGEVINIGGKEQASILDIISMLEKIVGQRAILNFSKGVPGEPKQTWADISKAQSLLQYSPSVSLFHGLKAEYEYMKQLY
Nature of the series: HPLC product assay, inhibition. Format: biochemical. The conditions noted are these: 1 mM UDP-GlcA, 1 mM NAD+, 50 mM phosphate pH 7.6, 37 °C.

Substrate in series [1]: Cc1cn([C@H]2C[C@H](O)[C@@H](COP(=O)(O)OP(=O)(O)O[C@H]3O[C@H](C(=O)O)[C@@H](O)[C@H](O)[C@H]3O)O2)c(=O)[nH]c1=O
The series can be described thus: HPLC. Format: biochemical, Bacillus cytotoxicus. The settings on record: 1 mM NAD+, 50 mM sodium phosphate pH 7.6, 37 °C.

Substrate in series [2]: O=C(O)[C@H]1O[C@H](OP(=O)(O)OP(=O)(O)OC[C@H]2O[C@@H](n3ccc(=O)[nH]c3=O)[C@H](O)[C@@H]2O)[C@H](O)[C@@H](O)[C@@H]1O
Nature of the series: HPLC. It is filed as biochemical, Bacillus cytotoxicus. The settings on record: 1 mM NAD+, 50 mM sodium phosphate pH 7.6, 37 °C.

Broadly, the Km is the substrate concentration at which the rate is half of its maximum. One may read the kcat as the number of substrate molecules converted per active site and unit of time at saturation. Usually kcat/Km stands for the turnover number divided by the Michaelis constant.

On to `O=c1ccn([C@@H]2O[C@H](COP(=O)(O)OP(=O)(O)O)[C@@H](O)[C@H]2O)c(=O)[nH]1` [UDP], for which, at BcUGlcAE, the inhibition result was “the epimerase was highly inhibited by UDP and to a lesser extent by UDP-Xyl”.
On the same count and under the same terms, the value for `O=c1ccn([C@@H]2O[C@H](COP(=O)(O)OP(=O)(O)O[C@H]3OC[C@@H](O)[C@H](O)[C@H]3O)[C@@H](O)[C@H]2O)c(=O)[nH]1` [UDP-Xyl] was “the epimerase was highly inhibited by UDP and to a lesser extent by UDP-Xyl”.

B1: BcUGlcAE (Bacillus cytotoxicus NVH 391-98) (protein)
chain: MKILVTGAAGFIGSHLCEELLKDKSYSVIGIDHFIGPTPMQLKINNIRSLITNSRFEFIQENILSANLSKILQDVSAVYHLAAIPGVRTSWGKDFHPYVTNNILATQHLLEACKNKDLDKFIYISTSSVYGEKSGAVSEDLLPIPLSPYGVTKLSGEHLCHIYHTNFHIPTIILRYFTVYGPKQRTDMAFHRFIKQLIENKPLTIFGDGTQTRDFTYIDDCIKGTVATLKTRKNIIGEVINIGGKEQASILDIISMLEKIVGQRAILNFSKGVPGEPKQTWADISKAQSLLQYSPSVSLFHGLKAEYEYMKQLY
On to B1, for which, in the series “HPLC [1]”, the Km is 180 ± 10 µM, the kcat came out at 2.1 ± 0.1 s⁻¹ and the kcat/Km amounted to 12000 ± 400 M⁻¹ s⁻¹. Further, in the series “HPLC [2]”, the Km is 120 ± 10 µM, the kcat was determined as 3.2 ± 0.1 s⁻¹ and the kcat/Km amounted to 26000 ± 1400 M⁻¹ s⁻¹.

Source of the values: PMC3240692 (The FEBS journal, 2011).
